# Data from patent publication US8609089B2, “Compositions of PD-1 antagonists and methods of use” (Amplimmune, Inc., priority 2008, dated 2013).
# B1: B7-DC-Ig-APC: B7-DC-Ig conjugated with allophycocyanin (APC) (conjugate)
# chain: LFTVTAPKEVYTVDVGSSVSLECDFDRRECTELEGIRASLQKVENDTSLQSERATLLEEQLPLGKALFHIPSVQVRDSGQYRCLVICGAAWDYKYLTVKVKASYMRIDTRILEVPGTGEVQLTCQARGYPLAEVSWQNVSVPANTSHIRTPEGLYQVTSVLRLKPQPSRNFSCMFWNAHMKELTSAIIDPLSRMEPKVPRTWEPRGPTIKPCPPCKCPAPNLLGGPSVFIFPPKIKDVLMISLSPIVTCVVVDVSEDDPDVQISWFVNNVEVHTAQTQTHREDYNSTLRVVSALPIQHQDWMSGKEFKCKVNNKDLPAPIERTISKPKGSVRAPQVYVLPPPEEEMTKKQVTLTCMVTDFMPEDIYVEWTNNGKTELNYKNTEPVLDSDGSYFMYSKLRVEKKNWVERNSYSCSVVHEGLHNHHTTKSFSRTPGK
# B2: B7-DC-Ig: homodimer having 2 copies of SEQ ID NO: 10 linked by a disulfide linkage; mouse B7-DC ECD fused to Fc of mouse IgG2a (protein)
# chain: B1 chain
# modifications: homodimer via disulfide; Murine B7-DC-Ig fusion protein without signal sequence
# notes: mouse B7-DC ECD fused to Fc of mouse IgG2a
# What was measured:
# [1] = system: CT26 colorectal tumor cells; experiment: CT26 subcutaneous established tumor model, tumor eradication; assay type: in vivo, Balb/C mice
# Protocol: Mouse colorectal tumor cell line, CT26, was obtained from ATCC. A master cell bank at Passage 4 was generated following ATCC guidelines. […] One vial of tumor cells was thawed from the cryopreserved stocks and grown for two passages prior to inoculation.
# CT26 cells were split at 1:5 dilution with 30 mL complete medium (RPMI+10% FBS, 2 mM L-Glu, and 1×P/S) for two days culture or at 1:10 dilution with 30 ml complete medium for 3 days culture.
# CT26 cells were harvested by aspirating medium, rinsing the flask with 5 mL PBS, adding 5 mL trypsin, incubating at 37° C. for 2 min, and then neutralizing with 10 mL complete medium. After centrifuge at 600×g (˜1000 rpm) for 5 min, media was aspirated and the cell pellet was resuspended by pipetting with 10 ml plain RPMI. This wash step was repeated for three times.
# Cell number and viability of the inoculated cells were analyzed by trypan blue dye staining with proper dilution (e.g. 1:5 dilution, 10 μL cells+40 μL trypan blue) and confirmed by NOVA cell count during the last wash step.
# CT26 cells were diluted to 6.7×10^5 cells/mL for initial inoculation with plain RPMI and stored on ice. Typically each mouse was inoculated with 150 μL (1×10^5 cells).
# CTX solution was reconstituted by 1×PBS to 4 mg/mL. […]
# The same dose was given 2 time a week for 4 weeks, total 8 doses. […] Tumor volume was calculated as following: Tumor volume=π(Dshort)^2×(Dlong)/6=˜0.52×(Dshort)^2×(Dlong)
# Mice were euthanized and taken off the study if the tumor volume reached 2000 mm^3 or if there were skin ulcers and infections at the tumor inoculation site.
# On day 11 post tumor challenge, mice received a single dose of cyclophosphamide (100 mg/kg) and started treatment with anti-PD-1 antibody (250 ug, Clone G4, Hirano F. et al., 2005 Cancer Research) which was administered 3 times per week for four weeks.
# On day 11 post tumor challenge, mice received 100 mg/kg of cyclophosphamide. Anti-CTLA4 (an anti-mouse CTLA4 from hamster hybridoma—ATCC deposit UC10-4F10-11) treatment was started 1 day later, on day 12. Mice were treated with 100 ug of anti-CTLA4, 2 doses per week, for 4 weeks.
# [2] = system: Treg and CD4+ T cells expressing high PD-1; experiment: T cell analysis in CT26 tumor-bearing mice (Treg, PD-1+/CD4+ T cells); assay type: in vivo, Balb/C mice
# Protocol: On Day 9, mice were injected with 100 mg/kg of CTX, IP. […] Two naïve mice and 4 mice from other groups were removed from the study on Day 11 (2 days post CTX) and Day 16 (7 days post CTX) for T cell analysis. […] Mice implanted with tumor cells intended to have more PD-1+/CD4+ T cells in the draining LN compared with naïve mice.
# SP-1 cells = experiment: Metastatic prostate tumor model, survival; assay type: in vivo, B10.D2 mice; details: CTX 50 mg/kg Day 5, 12, 19; B7-DC-Ig 5 mg/kg Day 6, 13, 20; SP-1 cells intravenously
# Protocol: SP-1 cells were isolated from mouse lungs that were metastasized from TRAMP prostate tumor cell injection. B10.D2 mice were first injected with 3×10^5 SP-1 cells via tail vein injection. On Day 5, 12 and 19, mice were injected with 50 mg/kg of CTX where was indicated. […] Here, “NT” refers to “not treated”.
# The CTX mice received 3 doses of CTX, 50 mg/kg, on Day 5, 12 and 19.
# AB1-HA tumor = details: CTX treatment at Day 9; van der Most et al. 2009; cited from earlier work
# [3] = biological target: T1, CHO cell line constitutively expressing PD-1 (Homo sapiens, UniProt Q15116); experiment: Flow cytometry binding to CHO cells expressing PD-1; details: various concentrations
# T1 construct: expressed in transfected cells; host or cells: CHO
# T1 sequence (Q15116 25-288): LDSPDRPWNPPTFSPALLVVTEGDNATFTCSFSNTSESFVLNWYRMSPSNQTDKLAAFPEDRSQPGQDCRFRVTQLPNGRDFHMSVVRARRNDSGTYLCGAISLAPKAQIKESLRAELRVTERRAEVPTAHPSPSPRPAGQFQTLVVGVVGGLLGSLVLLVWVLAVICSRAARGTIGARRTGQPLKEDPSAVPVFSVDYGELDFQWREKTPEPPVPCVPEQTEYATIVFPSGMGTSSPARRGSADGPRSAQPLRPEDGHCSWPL
# Protocol: (§1) Binding was analyzed by flow cytometry.
# [4] = system: parent CHO cells that do not express PD-1; experiment: Flow cytometry binding to parent CHO cells; details: various concentrations
# Protocol: as §1
# PD-1 = biological target: T2, PD-1 (Homo sapiens, UniProt Q15116); experiment: Competition with labeled B7-H1-Ig for binding to PD-1 on CHO cells; details: unlabeled competitor at various concentrations, then B7-H1-Ig-APC; MFI
# T2 construct: expressed in transfected cells; host or cells: CHO
# T2 sequence (Q15116 25-288): as above
# From the text: B7-H1-Ig was first conjugated with allophycocyanin (APC).
Molecule,"outcome of mice, CTX alone group ([1]; CTX 100 mg/kg day 10)","Treg in the spleen vs vehicle-injected tumor-bearing mice ([2]; Day 11, 2 days post CTX 100 mg/kg IP)",mice survived on Day 100 (SP-1 cells) [%],cure rate (AB1-HA tumor) [%],binding to CHO.PD-1 cells (median fluorescence intensity) [3],binding to untransfected CHO cells (median fluorescence intensity) [4],competition with B7-H1 for binding to PD-1 (PD-1),"tumor eradication ([1]; cyclophosphamide 100 mg/kg day 9, 30 μg B7-DC-Ig from Day 10, 2 doses per week, 8 doses) [%]","tumor eradication ([1]; cyclophosphamide 100 mg/kg day 9, 100 μg B7-DC-Ig from Day 10, 2 doses per week, 8 doses) [%]","mice that eradicated the tumors ([1]; cyclophosphamide 100 mg/kg day 9, 300 μg B7-DC-Ig from Day 10, 2 doses per week, 8 doses) [%]","CD4+ T cells expressing high PD-1 ([2]; Day 16, 7 days post CTX and 6 days post B7-DC-Ig 100 ug, draining LN)"
"O=P1(N(CCCl)CCCl)NCCCO1 (stereo not drawn) [CTX, cyclophosphamide, reference compound]",died as a result of tumor growth or were euthanized,significantly lower,17,75,–,–,–,–,–,–,–
B1,–,–,–,–,binds to CHO.PD-1 cells,not untransfected CHO cells,–,–,–,–,–
B2,–,–,17,–,–,–,competes with B7-H1 for binding to PD-1,10,40,70,significantly lowered the CD4+ T cells expressing high PD-1
